Experimental data taken from patent publication US20240279318A1 (NANJING LEGEND BIOTECH, published 2024).

Columns and labels:
[1] = biological target: T1, AFP158/HLA-A*02:01 complex (human); assay: SPR, crude scFv captured;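 note: Peptide–MHC complex flowed at several concentrations over sensorchip-captured scFv, Kd derived from on- and off-rates obtained from the association and dissociation curves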
T1 construct: biotinylated on the BSP by BirA for ELISA and panning; also called biotinylated AFP158/HLA-A*02:01 complex; Bio-AFP158

[2] = biological target: T1, AFP158/HLA-A*02:01 complex; assay: SPR; vs AS170036 VL1VH1;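 note: crude scFv captured on sensor chip, peptide–HLA complex flowed over at several concentrations, KD estimated from association and dissociation kinetic rates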

Binder	Kd [1] [µM]	Affinity increase [2] [fold]
AS170036 VL1VH1 HL107S (scFv) scFv: QSALTQPRSVSGSPGQSVTISCAGTSSDVGSENYVSWYQQHPGKAPKLMIYQVNKRASGVPDRFSGSKSGNTASLTISGLQAEDEADYYCASYRSSDHNIVFGGGTKLTVLGGGGSGGGGSGGGGSEVQLVESGGGLVQPGGSLRLSCAASGFTFSSYAMSWVRQAPGKGLEWVSTINSGTGSPYYADSVKGRFTISRDNSKNTLYLQMNSLRAEDTAVYYCAKNFFDGSWFSGPPAMDYWGQGTLVTVSSHHHHHH	4.1	0.1
AS170036 VL1VH1 HL107V (scFv) scFv: QSALTQPRSVSGSPGQSVTISCAGTSSDVGSENYVSWYQQHPGKAPKLMIYQVNKRASGVPDRFSGSKSGNTASLTISGLQAEDEADYYCASYRSSDHNIVFGGGTKLTVLGGGGSGGGGSGGGGSEVQLVESGGGLVQPGGSLRLSCAASGFTFSSYAMSWVRQAPGKGLEWVSTINSGTGSPYYADSVKGRFTISRDNSKNTLYLQMNSLRAEDTAVYYCAKNFFDGSWFVGPPAMDYWGQGTLVTVSSHHHHHH	2.5	0.1
AS170036 VL1VH1 HP58F (scFv) scFv: QSALTQPRSVSGSPGQSVTISCAGTSSDVGSENYVSWYQQHPGKAPKLMIYQVNKRASGVPDRFSGSKSGNTASLTISGLQAEDEADYYCASYRSSDHNIVFGGGTKLTVLGGGGSGGGGSGGGGSEVQLVESGGGLVQPGGSLRLSCAASGFTFSSYAMSWVRQAPGKGLEWVSTINSGTGSFYYADSVKGRFTISRDNSKNTLYLQMNSLRAEDTAVYYCAKNFFDGSWFLGPPAMDYWGQGTLVTVSSHHHHHH	1.7	0.2
AS170036 VL1VH1 HP58D (scFv) scFv: QSALTQPRSVSGSPGQSVTISCAGTSSDVGSENYVSWYQQHPGKAPKLMIYQVNKRASGVPDRFSGSKSGNTASLTISGLQAEDEADYYCASYRSSDHNIVFGGGTKLTVLGGGGSGGGGSGGGGSEVQLVESGGGLVQPGGSLRLSCAASGFTFSSYAMSWVRQAPGKGLEWVSTINSGTGSDYYADSVKGRFTISRDNSKNTLYLQMNSLRAEDTAVYYCAKNFFDGSWFLGPPAMDYWGQGTLVTVSSHHHHHH	0.66	0.4
AS170036 VL1VH1 HP58A (scFv) scFv: QSALTQPRSVSGSPGQSVTISCAGTSSDVGSENYVSWYQQHPGKAPKLMIYQVNKRASGVPDRFSGSKSGNTASLTISGLQAEDEADYYCASYRSSDHNIVFGGGTKLTVLGGGGSGGGGSGGGGSEVQLVESGGGLVQPGGSLRLSCAASGFTFSSYAMSWVRQAPGKGLEWVSTINSGTGSAYYADSVKGRFTISRDNSKNTLYLQMNSLRAEDTAVYYCAKNFFDGSWFLGPPAMDYWGQGTLVTVSSHHHHHH	0.38	0.7
AS170036 VL1VH1 HP58H (scFv) scFv: QSALTQPRSVSGSPGQSVTISCAGTSSDVGSENYVSWYQQHPGKAPKLMIYQVNKRASGVPDRFSGSKSGNTASLTISGLQAEDEADYYCASYRSSDHNIVFGGGTKLTVLGGGGSGGGGSGGGGSEVQLVESGGGLVQPGGSLRLSCAASGFTFSSYAMSWVRQAPGKGLEWVSTINSGTGSHYYADSVKGRFTISRDNSKNTLYLQMNSLRAEDTAVYYCAKNFFDGSWFLGPPAMDYWGQGTLVTVSSHHHHHH	1	0.3
AS170036 VL1VH1 HL107T (scFv) scFv: QSALTQPRSVSGSPGQSVTISCAGTSSDVGSENYVSWYQQHPGKAPKLMIYQVNKRASGVPDRFSGSKSGNTASLTISGLQAEDEADYYCASYRSSDHNIVFGGGTKLTVLGGGGSGGGGSGGGGSEVQLVESGGGLVQPGGSLRLSCAASGFTFSSYAMSWVRQAPGKGLEWVSTINSGTGSPYYADSVKGRFTISRDNSKNTLYLQMNSLRAEDTAVYYCAKNFFDGSWFTGPPAMDYWGQGTLVTVSSHHHHHH	2.8	0.1
AS170036 VL1VH1 HP58K (scFv) scFv: QSALTQPRSVSGSPGQSVTISCAGTSSDVGSENYVSWYQQHPGKAPKLMIYQVNKRASGVPDRFSGSKSGNTASLTISGLQAEDEADYYCASYRSSDHNIVFGGGTKLTVLGGGGSGGGGSGGGGSEVQLVESGGGLVQPGGSLRLSCAASGFTFSSYAMSWVRQAPGKGLEWVSTINSGTGSKYYADSVKGRFTISRDNSKNTLYLQMNSLRAEDTAVYYCAKNFFDGSWFLGPPAMDYWGQGTLVTVSSHHHHHH	0.86	0.3
AS170036 VL1VH1 HP58G (scFv) scFv: QSALTQPRSVSGSPGQSVTISCAGTSSDVGSENYVSWYQQHPGKAPKLMIYQVNKRASGVPDRFSGSKSGNTASLTISGLQAEDEADYYCASYRSSDHNIVFGGGTKLTVLGGGGSGGGGSGGGGSEVQLVESGGGLVQPGGSLRLSCAASGFTFSSYAMSWVRQAPGKGLEWVSTINSGTGSGYYADSVKGRFTISRDNSKNTLYLQMNSLRAEDTAVYYCAKNFFDGSWFLGPPAMDYWGQGTLVTVSSHHHHHH	0.32	0.9
AS170036 VL1VH1 HP58E (scFv) scFv: QSALTQPRSVSGSPGQSVTISCAGTSSDVGSENYVSWYQQHPGKAPKLMIYQVNKRASGVPDRFSGSKSGNTASLTISGLQAEDEADYYCASYRSSDHNIVFGGGTKLTVLGGGGSGGGGSGGGGSEVQLVESGGGLVQPGGSLRLSCAASGFTFSSYAMSWVRQAPGKGLEWVSTINSGTGSEYYADSVKGRFTISRDNSKNTLYLQMNSLRAEDTAVYYCAKNFFDGSWFLGPPAMDYWGQGTLVTVSSHHHHHH	0.6	0.5

Second part, the binder after the results:

Kd [1] [µM]	Affinity increase [2] [fold]	Binder
0.78	0.3	AS170036 VL1VH1 HP58S (scFv) scFv: QSALTQPRSVSGSPGQSVTISCAGTSSDVGSENYVSWYQQHPGKAPKLMIYQVNKRASGVPDRFSGSKSGNTASLTISGLQAEDEADYYCASYRSSDHNIVFGGGTKLTVLGGGGSGGGGSGGGGSEVQLVESGGGLVQPGGSLRLSCAASGFTFSSYAMSWVRQAPGKGLEWVSTINSGTGSSYYADSVKGRFTISRDNSKNTLYLQMNSLRAEDTAVYYCAKNFFDGSWFLGPPAMDYWGQGTLVTVSSHHHHHH
1.2	0.2	AS170036 VL1VH1 HP58R (scFv) scFv: QSALTQPRSVSGSPGQSVTISCAGTSSDVGSENYVSWYQQHPGKAPKLMIYQVNKRASGVPDRFSGSKSGNTASLTISGLQAEDEADYYCASYRSSDHNIVFGGGTKLTVLGGGGSGGGGSGGGGSEVQLVESGGGLVQPGGSLRLSCAASGFTFSSYAMSWVRQAPGKGLEWVSTINSGTGSRYYADSVKGRFTISRDNSKNTLYLQMNSLRAEDTAVYYCAKNFFDGSWFLGPPAMDYWGQGTLVTVSSHHHHHH
3.5	0.1	AS170036 VL1VH1 HP58Y (scFv) scFv: QSALTQPRSVSGSPGQSVTISCAGTSSDVGSENYVSWYQQHPGKAPKLMIYQVNKRASGVPDRFSGSKSGNTASLTISGLQAEDEADYYCASYRSSDHNIVFGGGTKLTVLGGGGSGGGGSGGGGSEVQLVESGGGLVQPGGSLRLSCAASGFTFSSYAMSWVRQAPGKGLEWVSTINSGTGSYYYADSVKGRFTISRDNSKNTLYLQMNSLRAEDTAVYYCAKNFFDGSWFLGPPAMDYWGQGTLVTVSSHHHHHH
1.5	0.2	AS170036 VL1VH1 HP58N (scFv) scFv: QSALTQPRSVSGSPGQSVTISCAGTSSDVGSENYVSWYQQHPGKAPKLMIYQVNKRASGVPDRFSGSKSGNTASLTISGLQAEDEADYYCASYRSSDHNIVFGGGTKLTVLGGGGSGGGGSGGGGSEVQLVESGGGLVQPGGSLRLSCAASGFTFSSYAMSWVRQAPGKGLEWVSTINSGTGSNYYADSVKGRFTISRDNSKNTLYLQMNSLRAEDTAVYYCAKNFFDGSWFLGPPAMDYWGQGTLVTVSSHHHHHH
1.5	0.2	AS170036 VL1VH1 HP58M (scFv) scFv: QSALTQPRSVSGSPGQSVTISCAGTSSDVGSENYVSWYQQHPGKAPKLMIYQVNKRASGVPDRFSGSKSGNTASLTISGLQAEDEADYYCASYRSSDHNIVFGGGTKLTVLGGGGSGGGGSGGGGSEVQLVESGGGLVQPGGSLRLSCAASGFTFSSYAMSWVRQAPGKGLEWVSTINSGTGSMYYADSVKGRFTISRDNSKNTLYLQMNSLRAEDTAVYYCAKNFFDGSWFLGPPAMDYWGQGTLVTVSSHHHHHH
0.5	0.5	AS170036 VL1VH1 HP58Q (scFv) scFv: QSALTQPRSVSGSPGQSVTISCAGTSSDVGSENYVSWYQQHPGKAPKLMIYQVNKRASGVPDRFSGSKSGNTASLTISGLQAEDEADYYCASYRSSDHNIVFGGGTKLTVLGGGGSGGGGSGGGGSEVQLVESGGGLVQPGGSLRLSCAASGFTFSSYAMSWVRQAPGKGLEWVSTINSGTGSQYYADSVKGRFTISRDNSKNTLYLQMNSLRAEDTAVYYCAKNFFDGSWFLGPPAMDYWGQGTLVTVSSHHHHHH
0.75	0.4	AS170036 VL1VH1 HP58T (scFv) scFv: QSALTQPRSVSGSPGQSVTISCAGTSSDVGSENYVSWYQQHPGKAPKLMIYQVNKRASGVPDRFSGSKSGNTASLTISGLQAEDEADYYCASYRSSDHNIVFGGGTKLTVLGGGGSGGGGSGGGGSEVQLVESGGGLVQPGGSLRLSCAASGFTFSSYAMSWVRQAPGKGLEWVSTINSGTGSTYYADSVKGRFTISRDNSKNTLYLQMNSLRAEDTAVYYCAKNFFDGSWFLGPPAMDYWGQGTLVTVSSHHHHHH
2.7	0.1	AS170036 VL1VH1 HP58W (scFv) scFv: QSALTQPRSVSGSPGQSVTISCAGTSSDVGSENYVSWYQQHPGKAPKLMIYQVNKRASGVPDRFSGSKSGNTASLTISGLQAEDEADYYCASYRSSDHNIVFGGGTKLTVLGGGGSGGGGSGGGGSEVQLVESGGGLVQPGGSLRLSCAASGFTFSSYAMSWVRQAPGKGLEWVSTINSGTGSWYYADSVKGRFTISRDNSKNTLYLQMNSLRAEDTAVYYCAKNFFDGSWFLGPPAMDYWGQGTLVTVSSHHHHHH
1.2	0.2	AS170036 VL1VH1 HP58V (scFv) scFv: QSALTQPRSVSGSPGQSVTISCAGTSSDVGSENYVSWYQQHPGKAPKLMIYQVNKRASGVPDRFSGSKSGNTASLTISGLQAEDEADYYCASYRSSDHNIVFGGGTKLTVLGGGGSGGGGSGGGGSEVQLVESGGGLVQPGGSLRLSCAASGFTFSSYAMSWVRQAPGKGLEWVSTINSGTGSVYYADSVKGRFTISRDNSKNTLYLQMNSLRAEDTAVYYCAKNFFDGSWFLGPPAMDYWGQGTLVTVSSHHHHHH
